From paper PMC8923076 (Cell chemical biology, 2021)

Molecular target: GST-fused GAS41 YEATS domain (residues 1-148) (human, UniProt O95619 1-148)
Assay: fluorescence polarisation

Sequence of GST-fused GAS41 YEATS domain (residues 1-148) (O95619 1-148): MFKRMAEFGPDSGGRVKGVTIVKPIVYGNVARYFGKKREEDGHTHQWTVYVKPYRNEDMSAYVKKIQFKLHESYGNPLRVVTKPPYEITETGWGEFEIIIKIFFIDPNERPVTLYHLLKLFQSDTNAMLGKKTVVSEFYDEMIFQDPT

An IC50 of 50 µM was found for GGKAPRKQLATKAARKSAP (N-terminal acetyl; acetyl-lysine at K18 and K27; C-terminal amide) [H3K18acK27ac peptide] in this work.
